Results published in patent publication US20260028391A1 (HUMABS BIOMED, published 2026).
Residue numbers refer to the chain shown, from its start. Names and notes keep the numbering of the source.

B1: MPK104-v1.3-rIgG1m17,1-LS (antibody, V domains shown)
VH: QVQLVESGGGLVKPGGSLRLSCAASGFTIDGYGMNWVRQAPGKGLEWVSSISASSNYIYYADSMKGRFTISRDNGKNSLYLQMHSLRVEDTGVYYCARAPLEPPYFDLWGRGTLVTVSS
VL: QSVLTQPPSVSGAPGQRVTISCSGGSSNIGAGYDVHWYQQVPGKGPKVLIYGNTNRPSGVPDRFSGSNFGASASLAITGLQAEDEADYFCQSYDRRLGGPVFGGGTKLTVL
notes: also called MPK104-v1.3-rIgG1-LS
B2: MPK104-v1.1-rIgG1m17,1-LS (antibody, V domains shown)
VH: B1 VH
VL: B1 VL with T54N, E83D
notes: called the parental mAb (v1.1)
B3: MPH12-v28 (VH-FRGL-S63A/VL-S26A) (antibody, V domains shown)
VH: QVQLVESGGGLVKPGGSLRLSCAASGFTFSGFYMKWIRQAPGKGLEWVSSISASGSYTNYADAVEGRFTISRDNAKNSLYLQMNSLRAEDTAVYYCARGDSYCGASACHGEFFHKWGQGTLVTVSS
VL: QSVLTQPPSVSGAPGQRVTISCTGSDANIGADFDVHWYQQLPGTAPKLLIYGNINRPSGVPDRFSGSRSGTSAFLAITRLQAEDEADYYCQSYDRSLHYVFGAGTKVTVL
notes: also called MPH12 VH-FRGL-S63A / MPH12 VL-S26A
B4: MPK190-v1.1-rIgG1m17,1-LS (antibody, V domains shown)
VH: QVQLVESGGGLVKPGGSLTLSCAASGFSISGYGMNWVRQAPGRGLEWVASISASSTYIYYADSMKGRFTISRDNGKTSLYLQMKSLRAEDTAVYYCARAPIEPPYFDLWGRGTLVTVSS
VL: QSVLTQPPSVSGAPGQRVTISCTGSNSNIGAGYDVHWYQHLPGKAPKVLIYGNNNRPSVVPDRFSGSNSGASASLAISGLQAEDEADYFCQSYDRRLSGPIFGGGTKLTVL
notes: also called MPK190-v1.1-rIgG1-LS
B5: MPK190-v1.3-rIgG1m17,1-LS (antibody, V domains shown)
VH: B4 VH
VL: QSVLTQPPSVSGAPGQRVTISCTGSSSNIGAGYDVHWYQHLPGKAPKVLIYGNTNRPSVVPDRFSGSNSGASASLAISGLQAEDEADYFCQSYDRRLSGPIFGGGTKLTVLG
notes: also called MPK190-v1.3-rIgG1-LS

Key:
biot-RSV-F wt [1] = target: T1, biot-RSV-F wt (respiratory syncytial virus (RSV)); experiment: BLI, SA sensor loaded with biot-RSV-F wt, mAb 5 ug/ml, 4 min association, 6 min dissociation
[2] = target: fusion glycoprotein (F) of RSV B GFP (Tables 41 and 42) (respiratory syncytial virus B); experiment: cell-based or functional assay
[3] = target: fusion glycoprotein (F) of RSV A GFP (Tables 41 and 42) (respiratory syncytial virus A); experiment: cell-based or functional assay
biot-RSV-F wt [4] = target: T1, biot-RSV-F wt; experiment: BLI (Octet), biotinylated F on SA sensors, mAb 5 µg/ml
[5] = target: T2, RSV F expressed on transfected Expi293F cells (respiratory syncytial virus (RSV)); experiment: flow cytometry, transfected Expi293F cells, fixed and permeabilised
[6] = target: fusion glycoprotein (F) of MPV A GFP (Tables 41 and 43) (metapneumovirus A); experiment: cell-based or functional assay
[7] = target: fusion glycoprotein (F) of the RSV used in the GFP-based neutralization assay of Table 23 (respiratory syncytial virus); experiment: cell-based or functional assay
[8] = target: fusion glycoprotein (F) of the MPV (non-D280N) used in the GFP-based neutralization assay of Table 23 (metapneumovirus); experiment: cell-based or functional assay
[9] = target: T3, MPV fusion glycoprotein with the D280N mutation (MPV-F N280) (metapneumovirus); experiment: biolayer interferometry (BLI), rIgG1 with M428L/N434S
T3 construct: also called MPV F D280N; MPV-F D280N

[10] = target: RSV fusion glycoprotein (RSV-F) (respiratory syncytial virus); experiment: as above
[11] = target: T4, MPV fusion glycoprotein without the D280N mutation (MPV-F D280) (metapneumovirus); experiment: as above
T4 construct: also called MPV F Non-D280N; MPV-F wt

DS-Cav1 RSV F = target: T5, DS-Cav1 RSV F (respiratory syncytial virus); experiment: ELISA on DS-Cav1 RSV F
T5 construct: also called DC-VCav1

biot-RSV-F wt [12] = target: T1, biot-RSV-F wt; experiment: BLI, SA sensor loaded with biot-RSV-F wt, mAb 5 ug/ml, 4 min association, 6 min dissociation; remark: listed apart in the source
[13] = target: T2, RSV F expressed on transfected Expi293F …; experiment: flow cytometry, transfected Expi293F cells, fixed and permeabilised; remark: listed apart in the source

Row | Binder | Kd (biot-RSV-F wt [1]) [nM] | IC50 (ng/ml), RSV B GFP neutralization [2] [ng/mL] | IC50 (ng/ml), RSV A GFP neutralization [3] [ng/mL] | Kd (biot-RSV-F wt [4]) [nM] | Binding (FACS) relative to parental mAb MPK104-v1.1 [5] | IC50 (ng/ml), MPV A GFP neutralization [6] [ng/mL] | RSV IC 50 (ng/mL), GFP-based in vitro neutralization [7] [ng/mL] | MPV IC50 (ng/mL), GFP-based in vitro neutralization [8] [ng/mL] | Kd [9] [nM] | Kd [10] [nM] | Kd [11] [nM] | EC50 (DS-Cav1 RSV F) [ng/mL] | Kd (biot-RSV-F wt [12]) [nM] | Binding (FACS) relative to parental mAb MPK190-v1.1 [13]
1 | B1 | 0.0924 | 6.49 | 2.71 | 0.209 | 1.1 | 5.57 | – | – | – | – | – | – | – | –
2 | B2 | 0.0649 | – | – | – | 1 | – | – | – | – | – | – | – | – | –
3 | B3 | – | – | – | – | – | – | 59.4 | 26.3 | 0.74 | 0.38 | 0.045 | 32.2 | – | –
4 | B4 | – | 3.39 | 3.54 | < 0.001 | – | 4.03 | – | – | – | – | – | – | < 0.001 | 1
5 | B5 | – | 2.38 | 3.18 | < 0.001 | – | 5.99 | – | – | – | – | – | – | < 0.001 | 0.9
